Paper PMC9482650, “Quantitative fragmentomics allow affinity mapping of interactomes” (Nature Communications, 2022)

What follows are binders tested against GORASP2, Q9H8Y8 (assay: holdup assay). Settings: plain residues with an end cap or a label only (N-terminal biotin on a linker: ado-ado).
Design: key: below the threshold = too weak to quantify, mostly under pKd 3.1 to 4

Binder | pKd
TKGPRGPTRV [SAPCD1, Q5SSQ6] | 3.96

The binders below were run against Inadl_9, Q8NI35 (assay: holdup assay). Settings: plain residues with an end cap or a label only (N-terminal biotin on a linker: ado-ado).
Design: key: below the threshold = too weak to quantify, mostly under pKd 3.1 to 4

Inadl_9, Q8NI35, sequence (Q8NI35 1530-1615): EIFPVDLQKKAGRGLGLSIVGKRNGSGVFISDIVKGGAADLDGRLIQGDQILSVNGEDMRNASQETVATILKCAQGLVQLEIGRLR

Binder | pKd
TKGPRGPTRV [SAPCD1, Q5SSQ6] | 4.11

What follows are binders tested against T1, LIN7B, Q9HAP6 (assay: holdup assay). Settings: plain residues with an end cap or a label only (N-terminal biotin on a linker: ado-ado).
T1 sequence (Q9HAP6 88-185, limits assumed, looked up): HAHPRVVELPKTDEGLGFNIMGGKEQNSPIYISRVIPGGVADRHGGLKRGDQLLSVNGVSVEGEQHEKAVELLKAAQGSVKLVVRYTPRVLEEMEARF
Design: key: below the threshold = too weak to quantify, mostly under pKd 3.1 to 4

Binder | pKd
TKGPRGPTRV [SAPCD1, Q5SSQ6] | below the threshold

These binders were tested against LAP2, Q96RT1 (assay: holdup assay). Settings: plain residues with an end cap or a label only (N-terminal biotin on a linker: ado-ado).
Design: key: below the threshold = too weak to quantify, mostly under pKd 3.1 to 4

LAP2, Q96RT1, sequence (Q96RT1 other isoform, or with tags, fused parts or gaps): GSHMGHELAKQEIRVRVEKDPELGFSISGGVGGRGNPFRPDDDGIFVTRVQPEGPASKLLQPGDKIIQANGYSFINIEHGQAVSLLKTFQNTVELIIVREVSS

Binder | pKd
TKGPRGPTRV [SAPCD1, Q5SSQ6] | 3.72

Each binder was assayed against TJP2_1, Q9UDY2 (assay: holdup assay). Settings: plain residues with an end cap or a label only (N-terminal biotin on a linker: ado-ado).
Design: key: below the threshold = too weak to quantify, mostly under pKd 3.1 to 4

TJP2_1, Q9UDY2, sequence (Q9UDY2 24-128): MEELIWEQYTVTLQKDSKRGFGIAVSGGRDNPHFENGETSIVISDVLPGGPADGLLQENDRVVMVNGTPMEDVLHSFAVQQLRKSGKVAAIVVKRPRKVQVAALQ

Binder | pKd
TKGPRGPTRV [SAPCD1, Q5SSQ6] | 3.9

The binders below were run against HTRA1, Q92743 (assay: holdup assay). Settings: plain residues with an end cap or a label only (N-terminal biotin on a linker: ado-ado).
Design: key: below the threshold = too weak to quantify, mostly under pKd 3.1 to 4

HTRA1, Q92743, sequence (Q92743 360-477): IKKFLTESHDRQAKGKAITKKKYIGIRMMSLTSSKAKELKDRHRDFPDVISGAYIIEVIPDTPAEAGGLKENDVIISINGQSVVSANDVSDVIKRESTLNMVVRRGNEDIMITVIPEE

Binder | pKd
TKGPRGPTRV [SAPCD1, Q5SSQ6] | below the threshold

Each binder was assayed against T2, SYNJ2BP, P57105 (assay: holdup assay). Settings: plain residues with an end cap or a label only (N-terminal biotin on a linker: ado-ado).
T2 sequence (P57105 8-110, limits assumed, looked up): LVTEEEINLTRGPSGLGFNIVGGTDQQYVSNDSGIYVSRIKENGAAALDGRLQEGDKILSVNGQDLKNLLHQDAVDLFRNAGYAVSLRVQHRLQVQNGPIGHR
Design: key: below the threshold = too weak to quantify, mostly under pKd 3.1 to 4

Binder | pKd
TKGPRGPTRV [SAPCD1, Q5SSQ6] | 4.25

Each binder was assayed against IL16_1, Q14005 (assay: holdup assay). Settings: plain residues with an end cap or a label only (N-terminal biotin on a linker: ado-ado).
Design: key: below the threshold = too weak to quantify, mostly under pKd 3.1 to 4

IL16_1, Q14005, sequence (Q14005 210-306): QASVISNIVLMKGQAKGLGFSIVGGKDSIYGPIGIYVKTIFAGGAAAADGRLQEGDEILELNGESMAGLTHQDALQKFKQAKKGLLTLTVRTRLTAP

Binder | pKd
TKGPRGPTRV [SAPCD1, Q5SSQ6] | below the threshold

The binders below were run against T3, PARD3B_1, Q8TEW8 (assay: holdup assay). Settings: plain residues with an end cap or a label only (N-terminal biotin on a linker: ado-ado).
T3 sequence (Q8TEW8 196-299, limits assumed, looked up): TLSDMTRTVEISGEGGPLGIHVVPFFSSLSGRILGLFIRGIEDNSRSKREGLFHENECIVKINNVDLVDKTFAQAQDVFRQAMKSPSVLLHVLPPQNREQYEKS
Design: key: below the threshold = too weak to quantify, mostly under pKd 3.1 to 4

Binder | pKd
TKGPRGPTRV [SAPCD1, Q5SSQ6] | below the threshold

These binders were tested against Inadl_10, Q8NI35 (assay: holdup assay). Settings: plain residues with an end cap or a label only (N-terminal biotin on a linker: ado-ado).
Design: key: below the threshold = too weak to quantify, mostly under pKd 3.1 to 4

Inadl_10, Q8NI35, sequence (Q8NI35 1673-1763): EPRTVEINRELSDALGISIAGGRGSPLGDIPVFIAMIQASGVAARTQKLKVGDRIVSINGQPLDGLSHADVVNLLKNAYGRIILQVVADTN

Binder | pKd
TKGPRGPTRV [SAPCD1, Q5SSQ6] | below the threshold

Each binder was assayed against T4, DFNB31_1, Q9P202 (assay: holdup assay). Settings: plain residues with an end cap or a label only (N-terminal biotin on a linker: ado-ado).
T4 sequence (Q9P202 135-233, limits assumed, looked up): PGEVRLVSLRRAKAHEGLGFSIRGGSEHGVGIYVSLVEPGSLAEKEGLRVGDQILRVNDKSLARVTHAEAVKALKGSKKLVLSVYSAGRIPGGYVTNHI
Design: key: below the threshold = too weak to quantify, mostly under pKd 3.1 to 4

Binder | pKd
TKGPRGPTRV [SAPCD1, Q5SSQ6] | 3.52

These binders were tested against NHERF4_4, Q86UT5 (assay: holdup assay). Settings: plain residues with an end cap or a label only (N-terminal biotin on a linker: ado-ado).
Design: key: below the threshold = too weak to quantify, mostly under pKd 3.1 to 4

NHERF4_4, Q86UT5, sequence (Q86UT5 464-550): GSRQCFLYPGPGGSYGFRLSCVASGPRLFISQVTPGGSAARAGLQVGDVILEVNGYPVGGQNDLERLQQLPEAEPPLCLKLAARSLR

Binder | pKd
TKGPRGPTRV [SAPCD1, Q5SSQ6] | below the threshold

Each binder was assayed against T5, HTRA3, P83110 (assay: holdup assay). Settings: plain residues with an end cap or a label only (N-terminal biotin on a linker: ado-ado).
T5 sequence (P83110 354-453, limits assumed, looked up): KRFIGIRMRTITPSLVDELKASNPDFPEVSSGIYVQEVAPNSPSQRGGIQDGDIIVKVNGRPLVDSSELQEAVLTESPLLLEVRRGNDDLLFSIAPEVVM
Design: key: below the threshold = too weak to quantify, mostly under pKd 3.1 to 4

Binder | pKd
TKGPRGPTRV [SAPCD1, Q5SSQ6] | below the threshold

What follows are binders tested against T6, DLG3_2, Q92796 (assay: holdup assay). Settings: plain residues with an end cap or a label only (N-terminal biotin on a linker: ado-ado).
T6 sequence (Q92796 221-321, limits assumed, looked up): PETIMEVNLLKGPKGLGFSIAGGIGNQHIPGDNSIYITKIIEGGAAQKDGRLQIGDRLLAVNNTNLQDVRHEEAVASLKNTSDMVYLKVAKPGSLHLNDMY
Design: key: below the threshold = too weak to quantify, mostly under pKd 3.1 to 4

Binder | pKd
TKGPRGPTRV [SAPCD1, Q5SSQ6] | 4.13

These binders were tested against T7, DLG3_1, Q92796 (assay: holdup assay). Settings: plain residues with an end cap or a label only (N-terminal biotin on a linker: ado-ado).
T7 sequence (Q92796 125-227, limits assumed, looked up): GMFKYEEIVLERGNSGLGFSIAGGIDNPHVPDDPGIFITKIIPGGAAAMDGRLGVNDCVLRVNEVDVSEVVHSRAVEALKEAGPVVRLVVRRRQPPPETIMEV
Design: key: below the threshold = too weak to quantify, mostly under pKd 3.1 to 4

Binder | pKd
TKGPRGPTRV [SAPCD1, Q5SSQ6] | 3.96

These binders were tested against T8, GRIP1_4, Q9Y3R0 (assay: holdup assay). Settings: plain residues with an end cap or a label only (N-terminal biotin on a linker: ado-ado).
T8 sequence (Q9Y3R0 467-571, limits assumed, looked up): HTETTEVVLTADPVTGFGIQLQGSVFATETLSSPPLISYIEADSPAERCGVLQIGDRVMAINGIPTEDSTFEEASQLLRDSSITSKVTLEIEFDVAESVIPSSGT
Design: key: below the threshold = too weak to quantify, mostly under pKd 3.1 to 4

Binder | pKd
TKGPRGPTRV [SAPCD1, Q5SSQ6] | below the threshold

What follows are binders tested against Inadl_5, Q8NI35 (assay: holdup assay). Settings: plain residues with an end cap or a label only (N-terminal biotin on a linker: ado-ado).
Design: key: below the threshold = too weak to quantify, mostly under pKd 3.1 to 4

Inadl_5, Q8NI35, sequence (Q8NI35 673-780): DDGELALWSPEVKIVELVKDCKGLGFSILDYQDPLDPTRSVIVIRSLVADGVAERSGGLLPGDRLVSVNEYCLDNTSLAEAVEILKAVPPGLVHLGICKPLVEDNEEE

Binder | pKd
TKGPRGPTRV [SAPCD1, Q5SSQ6] | 3.61

These binders were tested against T9, RHPN1, Q8TCX5 (assay: holdup assay). Settings: plain residues with an end cap or a label only (N-terminal biotin on a linker: ado-ado).
T9 sequence (Q8TCX5 508-602, limits assumed, looked up): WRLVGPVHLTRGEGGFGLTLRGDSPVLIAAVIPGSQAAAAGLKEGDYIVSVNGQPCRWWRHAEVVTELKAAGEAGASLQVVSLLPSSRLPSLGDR
Design: key: below the threshold = too weak to quantify, mostly under pKd 3.1 to 4

Binder | pKd
TKGPRGPTRV [SAPCD1, Q5SSQ6] | below the threshold

These binders were tested against T10, PTPN13_1, Q12923 (assay: holdup assay). Settings: plain residues with an end cap or a label only (N-terminal biotin on a linker: ado-ado).
T10 sequence (Q12923 1088-1188, limits assumed, looked up): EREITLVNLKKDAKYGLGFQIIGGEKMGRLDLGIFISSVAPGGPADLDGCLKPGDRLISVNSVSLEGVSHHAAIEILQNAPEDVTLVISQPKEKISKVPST
Design: key: below the threshold = too weak to quantify, mostly under pKd 3.1 to 4

Binder | pKd
TKGPRGPTRV [SAPCD1, Q5SSQ6] | below the threshold

These binders were tested against NOS1, P29475 (assay: holdup assay). Settings: plain residues with an end cap or a label only (N-terminal biotin on a linker: ado-ado).
Design: key: below the threshold = too weak to quantify, mostly under pKd 3.1 to 4

NOS1, P29475, sequence (P29475 9-101): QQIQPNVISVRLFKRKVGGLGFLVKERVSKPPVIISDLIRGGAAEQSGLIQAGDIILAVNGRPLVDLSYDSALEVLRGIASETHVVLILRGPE

Binder | pKd
TKGPRGPTRV [SAPCD1, Q5SSQ6] | 4.2

Each binder was assayed against TJP1_3, Q07157 (assay: holdup assay). Settings: plain residues with an end cap or a label only (N-terminal biotin on a linker: ado-ado).
Design: key: below the threshold = too weak to quantify, mostly under pKd 3.1 to 4

TJP1_3, Q07157, sequence (Q07157 416-512): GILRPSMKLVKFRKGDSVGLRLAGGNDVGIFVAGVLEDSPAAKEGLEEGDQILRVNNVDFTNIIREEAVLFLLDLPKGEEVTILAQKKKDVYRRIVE

Binder | pKd
TKGPRGPTRV [SAPCD1, Q5SSQ6] | below the threshold

The binders below were run against T11, GRIP1_2, Q9Y3R0 (assay: holdup assay). Settings: plain residues with an end cap or a label only (N-terminal biotin on a linker: ado-ado).
T11 sequence (Q9Y3R0 145-248, limits assumed, looked up): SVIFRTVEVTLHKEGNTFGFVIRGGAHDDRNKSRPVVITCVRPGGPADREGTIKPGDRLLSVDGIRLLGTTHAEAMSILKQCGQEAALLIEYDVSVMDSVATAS
Design: key: below the threshold = too weak to quantify, mostly under pKd 3.1 to 4

Binder | pKd
TKGPRGPTRV [SAPCD1, Q5SSQ6] | below the threshold

The binders below were run against T12, MPDZ_10, O75970 (assay: holdup assay). Settings: plain residues with an end cap or a label only (N-terminal biotin on a linker: ado-ado).
T12 sequence (O75970 1624-1722, limits assumed, looked up): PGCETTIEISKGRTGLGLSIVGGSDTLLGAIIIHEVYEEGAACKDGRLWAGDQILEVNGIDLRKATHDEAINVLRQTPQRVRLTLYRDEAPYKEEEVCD
Design: key: below the threshold = too weak to quantify, mostly under pKd 3.1 to 4

Binder | pKd
TKGPRGPTRV [SAPCD1, Q5SSQ6] | 4.4

These binders were tested against DLG1_3, Q12959 (assay: holdup assay). Settings: plain residues with an end cap or a label only (N-terminal biotin on a linker: ado-ado).
Design: key: below the threshold = too weak to quantify, mostly under pKd 3.1 to 4

DLG1_3, Q12959, sequence (Q12959 457-571): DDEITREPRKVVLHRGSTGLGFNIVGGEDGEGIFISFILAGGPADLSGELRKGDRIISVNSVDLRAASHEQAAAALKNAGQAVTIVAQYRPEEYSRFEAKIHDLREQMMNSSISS

Binder | pKd
TKGPRGPTRV [SAPCD1, Q5SSQ6] | 4.31

These binders were tested against DLG4_1, P78352 (assay: holdup assay). Settings: plain residues with an end cap or a label only (N-terminal biotin on a linker: ado-ado).
Design: key: below the threshold = too weak to quantify, mostly under pKd 3.1 to 4

DLG4_1, P78352, sequence (P78352 62-152): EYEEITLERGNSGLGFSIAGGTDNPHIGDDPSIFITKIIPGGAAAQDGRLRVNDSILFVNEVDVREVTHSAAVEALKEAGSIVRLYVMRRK

Binder | pKd
TKGPRGPTRV [SAPCD1, Q5SSQ6] | 4.48
